Results published in US20250242041A1 (Seagen, published 2025).

Key:
[1] = biological target: T1, human αvβ6 on 293F:huβ6 cells (human, UniProt P06756 31-1048; P18564 22-788); experiment: competition binding on 293F cells; 2nM m2A2-AF647 competitor
T1 chain 1: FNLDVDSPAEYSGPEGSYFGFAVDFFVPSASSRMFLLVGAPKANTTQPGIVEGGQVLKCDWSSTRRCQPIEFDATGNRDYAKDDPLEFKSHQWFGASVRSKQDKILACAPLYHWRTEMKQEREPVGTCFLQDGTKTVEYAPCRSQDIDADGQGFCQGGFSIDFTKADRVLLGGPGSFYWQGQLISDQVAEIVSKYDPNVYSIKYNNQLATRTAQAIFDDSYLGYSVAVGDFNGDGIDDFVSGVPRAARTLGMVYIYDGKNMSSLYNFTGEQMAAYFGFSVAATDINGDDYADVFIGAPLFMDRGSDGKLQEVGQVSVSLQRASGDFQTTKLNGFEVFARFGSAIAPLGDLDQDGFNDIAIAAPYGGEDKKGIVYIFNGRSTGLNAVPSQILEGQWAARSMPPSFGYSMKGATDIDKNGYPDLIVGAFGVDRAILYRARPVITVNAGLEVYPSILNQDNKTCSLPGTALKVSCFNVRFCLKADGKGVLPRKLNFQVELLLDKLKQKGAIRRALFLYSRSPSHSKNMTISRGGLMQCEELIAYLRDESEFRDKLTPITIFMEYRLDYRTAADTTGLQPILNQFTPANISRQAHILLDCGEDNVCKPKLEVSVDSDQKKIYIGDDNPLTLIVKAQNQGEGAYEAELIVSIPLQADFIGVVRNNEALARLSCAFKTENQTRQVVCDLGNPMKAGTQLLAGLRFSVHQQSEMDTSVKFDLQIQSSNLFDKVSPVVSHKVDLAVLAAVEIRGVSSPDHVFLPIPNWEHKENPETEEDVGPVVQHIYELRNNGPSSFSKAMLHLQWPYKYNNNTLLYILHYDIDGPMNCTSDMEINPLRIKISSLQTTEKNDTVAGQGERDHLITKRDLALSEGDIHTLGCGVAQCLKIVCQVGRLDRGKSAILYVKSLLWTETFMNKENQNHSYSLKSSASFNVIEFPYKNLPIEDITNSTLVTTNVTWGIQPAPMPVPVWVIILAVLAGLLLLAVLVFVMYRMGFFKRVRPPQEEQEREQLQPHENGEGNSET
T1 chain 2: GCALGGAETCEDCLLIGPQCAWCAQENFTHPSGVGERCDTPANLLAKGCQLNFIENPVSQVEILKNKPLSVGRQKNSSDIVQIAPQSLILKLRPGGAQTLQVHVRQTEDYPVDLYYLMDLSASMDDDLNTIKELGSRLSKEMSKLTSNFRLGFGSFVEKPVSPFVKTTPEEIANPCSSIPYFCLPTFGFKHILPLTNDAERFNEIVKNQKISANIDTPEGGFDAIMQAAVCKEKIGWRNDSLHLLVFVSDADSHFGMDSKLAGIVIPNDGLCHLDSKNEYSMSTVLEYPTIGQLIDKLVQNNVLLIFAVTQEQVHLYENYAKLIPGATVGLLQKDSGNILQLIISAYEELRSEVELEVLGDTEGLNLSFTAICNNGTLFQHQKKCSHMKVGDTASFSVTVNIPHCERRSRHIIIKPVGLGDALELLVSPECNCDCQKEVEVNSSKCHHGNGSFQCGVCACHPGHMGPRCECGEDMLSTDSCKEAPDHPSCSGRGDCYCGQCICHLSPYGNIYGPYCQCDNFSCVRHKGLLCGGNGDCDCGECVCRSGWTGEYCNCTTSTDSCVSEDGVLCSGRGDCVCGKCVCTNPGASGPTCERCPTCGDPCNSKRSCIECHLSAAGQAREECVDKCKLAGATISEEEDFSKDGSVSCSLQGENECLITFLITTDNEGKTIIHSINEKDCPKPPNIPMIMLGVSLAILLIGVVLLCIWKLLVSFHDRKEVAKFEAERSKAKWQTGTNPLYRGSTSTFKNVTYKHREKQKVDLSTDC

[2] = biological target: T2, recombinant human αvβ6 (R&D Systems) (human, UniProt P06756 31-992; P18564 22-707); experiment: ELISA on coated recombinant integrin
T2 construct: Bought from R&D Systems, coated on the ELISA plate
Method: (§1) 96-well Maxisorb plates (Nunc) were coated overnight at 4° C. with 1 ug/ml of recombinant human αvβ1, αvβ3, αvβ5, αvβ6 and αvβ8 (R&D Systems, MN) diluted in 50 mM carbonate buffer (Sigma, MO). Plates were washed with PBS+0.05% Tween 20 (PBS-T). Wash buffer was removed and plates were blocked for 2 hours at room temperature in TBS blocking buffer (TBS, 0.05% Tween 20, 1% BSA). Plates were washed and then incubated for 2 hours with humanized 2A2 antibody diluted in TBS binding buffer (TBS, 0.05% Tween 20, 1% BSA, 1 mM MnCl₂) at concentrations that ranged from 1 pM-67 nM (10 ug/ml). Plates were washed, incubated for 1 hour with 1:5000 dilution of anti-human Fc-HRP (Jackson ImmunoResearch, PA), washed, and then incubated with TMB substrate for 5 minutes. The reaction was stopped with 1 M HCl. Absorbance at 450 nm was read using a Fusion HT plate reader (Perkin Elmer, Waltham, MA).

[3] = biological target: T3, recombinant human αvβ8 (human, UniProt P06756 31-992; P26012 43-684); experiment: ELISA on coated recombinant integrin
T3 construct: Bought from R&D Systems
Method: as §1

[4] = biological target: T4, recombinant human αvβ3 (human, UniProt P06756 31-992; P05106 27-718); experiment: ELISA on coated recombinant integrin
T4 construct: Bought from R&D Systems
Method: as §1

[5] = biological target: T5, recombinant human αvβ5 (human, UniProt P06756 31-992; P18084 24-719); experiment: ELISA on coated recombinant integrin
T5 construct: Bought from R&D Systems
Method: as §1

[6] = biological target: T6, recombinant human αvβ1 (human, UniProt P06756 31-992; P05556 21-728); experiment: ELISA on coated recombinant integrin
T6 construct: Bought from R&D Systems
Method: as §1

[7] = biological target: T1, human αvβ6 on 293F:huβ6 cells; experiment: competition binding on 293F cells; 2nM m2A2-AF647 competitor
[8] = biological target: T1, human αvβ6 on 293F:huβ6 cells; experiment: saturation binding on 293F cells; AF647-labeled
[9] = biological target: T1, human αvβ6 on 293F:huβ6 cells; experiment: competition binding on 293F cells

T6 sequence (P05556 21-728 limits assumed, one chain of several): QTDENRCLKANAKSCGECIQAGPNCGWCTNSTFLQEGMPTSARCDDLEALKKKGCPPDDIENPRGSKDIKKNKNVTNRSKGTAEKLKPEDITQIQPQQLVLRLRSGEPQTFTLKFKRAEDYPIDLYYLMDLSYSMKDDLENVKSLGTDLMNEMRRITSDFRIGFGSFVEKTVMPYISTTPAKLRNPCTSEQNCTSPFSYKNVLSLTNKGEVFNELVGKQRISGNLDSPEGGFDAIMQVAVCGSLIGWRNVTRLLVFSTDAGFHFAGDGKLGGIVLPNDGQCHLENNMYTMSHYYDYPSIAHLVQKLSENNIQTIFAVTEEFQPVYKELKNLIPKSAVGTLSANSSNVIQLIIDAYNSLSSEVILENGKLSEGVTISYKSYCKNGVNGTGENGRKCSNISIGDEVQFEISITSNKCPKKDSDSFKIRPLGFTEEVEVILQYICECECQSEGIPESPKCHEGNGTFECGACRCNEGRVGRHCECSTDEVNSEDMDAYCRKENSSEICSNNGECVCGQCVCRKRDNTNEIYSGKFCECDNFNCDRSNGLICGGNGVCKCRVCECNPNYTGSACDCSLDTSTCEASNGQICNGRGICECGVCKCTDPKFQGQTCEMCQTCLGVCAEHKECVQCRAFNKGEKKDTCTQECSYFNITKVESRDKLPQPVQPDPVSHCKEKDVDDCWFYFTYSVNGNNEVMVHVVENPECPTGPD
T3 sequence (P26012 43-684 limits assumed, one chain of several): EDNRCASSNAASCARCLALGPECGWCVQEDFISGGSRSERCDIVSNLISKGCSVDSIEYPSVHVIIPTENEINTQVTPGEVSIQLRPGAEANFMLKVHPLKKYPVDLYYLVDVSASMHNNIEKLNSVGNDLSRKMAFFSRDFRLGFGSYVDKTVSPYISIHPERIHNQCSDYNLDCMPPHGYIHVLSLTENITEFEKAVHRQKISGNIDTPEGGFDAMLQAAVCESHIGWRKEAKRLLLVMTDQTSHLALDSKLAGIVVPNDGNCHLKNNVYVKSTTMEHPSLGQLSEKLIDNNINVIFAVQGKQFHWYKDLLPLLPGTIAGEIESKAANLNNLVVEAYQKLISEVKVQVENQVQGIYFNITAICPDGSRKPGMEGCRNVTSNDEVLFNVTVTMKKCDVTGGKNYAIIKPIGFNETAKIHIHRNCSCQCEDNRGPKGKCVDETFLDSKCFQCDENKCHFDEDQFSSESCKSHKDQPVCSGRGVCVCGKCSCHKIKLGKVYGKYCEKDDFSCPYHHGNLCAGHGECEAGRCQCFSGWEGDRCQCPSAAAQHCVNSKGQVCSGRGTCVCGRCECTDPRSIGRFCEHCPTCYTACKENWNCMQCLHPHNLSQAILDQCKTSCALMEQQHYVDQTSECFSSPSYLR
T4 sequence (P05106 27-718 limits assumed, one chain of several): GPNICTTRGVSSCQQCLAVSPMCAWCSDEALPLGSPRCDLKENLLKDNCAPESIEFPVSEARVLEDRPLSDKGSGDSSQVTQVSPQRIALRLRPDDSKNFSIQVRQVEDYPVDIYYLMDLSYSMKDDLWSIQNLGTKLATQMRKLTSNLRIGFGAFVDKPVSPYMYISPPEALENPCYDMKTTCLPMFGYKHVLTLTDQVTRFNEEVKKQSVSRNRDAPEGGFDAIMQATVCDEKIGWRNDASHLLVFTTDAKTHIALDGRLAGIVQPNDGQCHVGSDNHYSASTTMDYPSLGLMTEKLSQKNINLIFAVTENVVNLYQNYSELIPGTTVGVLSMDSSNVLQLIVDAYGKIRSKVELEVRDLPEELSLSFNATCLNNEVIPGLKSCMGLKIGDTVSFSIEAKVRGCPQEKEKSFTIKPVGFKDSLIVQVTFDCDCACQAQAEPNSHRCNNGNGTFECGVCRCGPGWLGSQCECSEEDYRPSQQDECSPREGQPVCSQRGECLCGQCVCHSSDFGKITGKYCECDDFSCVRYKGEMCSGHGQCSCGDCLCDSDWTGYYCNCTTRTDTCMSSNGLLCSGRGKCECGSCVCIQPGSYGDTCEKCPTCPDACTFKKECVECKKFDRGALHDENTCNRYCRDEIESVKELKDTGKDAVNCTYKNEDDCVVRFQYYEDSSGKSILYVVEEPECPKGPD
T5 sequence (P18084 24-719 limits assumed, one chain of several): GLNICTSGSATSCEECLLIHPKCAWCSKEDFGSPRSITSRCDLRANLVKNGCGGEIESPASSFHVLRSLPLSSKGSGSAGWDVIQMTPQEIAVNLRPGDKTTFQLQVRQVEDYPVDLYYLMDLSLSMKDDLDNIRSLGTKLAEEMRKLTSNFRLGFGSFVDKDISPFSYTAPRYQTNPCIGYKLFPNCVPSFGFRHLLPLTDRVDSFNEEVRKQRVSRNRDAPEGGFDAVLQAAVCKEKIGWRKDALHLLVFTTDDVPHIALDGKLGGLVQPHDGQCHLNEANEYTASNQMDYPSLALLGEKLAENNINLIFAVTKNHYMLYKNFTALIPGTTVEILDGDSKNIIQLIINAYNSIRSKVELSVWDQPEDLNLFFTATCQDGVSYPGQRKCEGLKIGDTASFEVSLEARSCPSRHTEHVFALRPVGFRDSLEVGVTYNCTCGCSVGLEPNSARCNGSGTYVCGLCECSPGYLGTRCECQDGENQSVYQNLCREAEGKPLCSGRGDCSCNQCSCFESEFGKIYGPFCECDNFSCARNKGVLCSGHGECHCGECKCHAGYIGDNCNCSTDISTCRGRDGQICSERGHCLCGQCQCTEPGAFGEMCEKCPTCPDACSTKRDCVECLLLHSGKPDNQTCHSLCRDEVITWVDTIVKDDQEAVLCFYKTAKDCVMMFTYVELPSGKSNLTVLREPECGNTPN

EC50 [1]: 1 nM | binding result [2]: binds | EC50 [7]: 1 nM | EC50 [8]: 0.3 nM | EC50 [9]: 3 nM
B1: h2A2 HCLG humanized antibody (antibody, human IgG1, kappa, V domains shown)
VH: QFQLVQSGAEVKKPGASVKVSCKASGYSFTDYNVNWVRQAPGQGLEWIGVINPKYGTTRYNQKFKGRATLTVDKSTSTAYMELSSLRSEDTAVYYCTRGLNAWDYWGQGTLVTVSS
VL: DIQMTQSPSSLSASVGDRVTITCGASENIYGALNWYQQKPGKAPKLLIYGATNLEDGVPSRFSGSGSGRDYTFTISSLQPEDIATYYCQNVLTTPYTFGQGTKLEIKR
notes: Labelled with AlexaFluor-647 in the saturation assay; also called humanized 2A2 HCLG
binding result [3]: no binding (tested: 1 pM-67 nM (10 ug/ml)) | binding result [4]: no binding (tested: 1 pM-67 nM (10 ug/ml)) | binding result [5]: no binding (tested: 1 pM-67 nM (10 ug/ml)) | binding result [6]: no binding (tested: 1 pM-67 nM (10 ug/ml))
